Usually Kd stands for the concentration at which binding is half-saturated. Higher therefore signals weaker binding. As a reminder, the koff is a measure of how fast the partners let go of each other. Read a low koff as slow dissociation. Broadly, the kon is the rate constant with which the complex forms. A low value points to slower complex formation.

Assay [1] addresses T1, hIL27Ra-his (Origene, Catalog #TP307012) (human, UniProt Q6UWB1 33-516, limits assumed).
T1 construct: Bought his-tagged cytokine receptor used as SPR analyte; also called human IL27 receptor subunit alpha; not shown: his tag
T1 sequence: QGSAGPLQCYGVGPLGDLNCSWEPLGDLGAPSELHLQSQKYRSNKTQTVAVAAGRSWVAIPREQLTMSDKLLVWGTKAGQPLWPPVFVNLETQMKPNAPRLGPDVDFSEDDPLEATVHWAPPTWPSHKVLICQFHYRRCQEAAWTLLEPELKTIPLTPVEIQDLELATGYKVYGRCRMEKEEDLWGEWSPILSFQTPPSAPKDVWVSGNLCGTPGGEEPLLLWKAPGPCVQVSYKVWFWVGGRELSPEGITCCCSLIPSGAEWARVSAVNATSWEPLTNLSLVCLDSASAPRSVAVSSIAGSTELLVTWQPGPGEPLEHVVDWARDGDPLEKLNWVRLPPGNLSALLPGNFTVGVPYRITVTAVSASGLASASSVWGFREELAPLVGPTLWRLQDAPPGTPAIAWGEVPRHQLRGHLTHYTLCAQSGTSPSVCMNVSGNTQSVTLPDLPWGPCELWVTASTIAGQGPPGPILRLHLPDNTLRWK
Nature of the assay: SPR Biacore T200; ratio experimental/calculated Rmax. The method, then:
(§1) All experiments were conducted in 10 mM Hepes, 150 mMv NaCl, 0.05% (v/v) Polysorbate 20 (PS20) and 3 mMv EDTA (HBS-EP+ buffer) on a Biacore® T200 instrument equipped with a Protein A chip (Cytiva). Mono-Fc VHH ligands were flowed at 5 μl/min for variable time ranging from 18 to 300 seconds, reaching the capture loads listed in the tables below.
(§2) Following ligand capture, injections of a 2-fold dilution series of his-tagged cytokine receptors typically comprising at least five concentrations between 1 μM and 1 nM were performed in either high performance or single cycle kinetics mode. Surface regeneration was achieved by flowing 10 mMv glycine-HCl, pH 1.5 (60 seconds, 50 μL/min). Buffer-subtracted sensograms were processed with Biacore® T200 Evaluation Software and globally fit with a 1:1 Langmuir binding model (bulk shift set to zero) to extract kinetics and affinity constants (ka, kd, KD). RMAX<100 RU indicates surface density compatible with kinetics analysis. Calculated Rmax were generated using the equation Rmax=Load (RU)×valency of ligand×(Molecular weight of analyte/Molecular weight of ligand. Surface activity was defined as the ratio experimental/calculated Rmax. See tables below for sample information and experimental results.

For assay [2], the target named is T1, hIL27Ra-his (Origene, Catalog #TP307012). Description: SPR Biacore T200; mono-Fc VHH on Protein A chip, hIL27Ra-his analyte. The method, then: as §1, §2
On the technique in general: SPR reads the build-up and loss of mass on a sensor chip optically.

B1: 25-DR602 (SEQ ID NO. 250), anti-hIL27Ra Mono-Fc VHH (Fc fusion)
chain: QVQLQESGGGSVQAGGSLRLSCRASGSTYSNYCLGWFRQITGKEREGVAVINWVGGMLYFADSVKGRFTVSQDQAKNTVYLQMNSLKPEDTAMYYCAAESVSSFSCGGWLTRPDRVPYWGQGTQVTVSS
notes: Mono-Fc VHH ligand captured on a Protein A chip; not shown: mono-Fc part
Take B1: the “Surface Activity” value in assay [1] is 20%. In assay [2], the affinity, expressed as Kd, was 5.2 nM; the koff is 0.00076 s⁻¹; the kon amounted to 150000 M⁻¹ s⁻¹.

B2: 26-DR603 (SEQ ID NO. 251), anti-hIL27Ra Mono-Fc VHH (Fc fusion)
chain: QVQLQESGGGLVQPGGSLRLSCAASGFTFSLSSMSWVRQAPGKGLEWVSAISSGGASTYYTDSVKGRFTISRDNAKNMLYLQLNSLKTEDTAMYYCAKGGSGYGDASRMTSPGSQGTQVTVSS
notes: as for B1
For the molecule B2, the “Surface Activity” value in assay [1] was 18%. In addition, in assay [2], the Kd came to 6.1 nM, the koff worked out at 0.00077 s⁻¹ and the kon was found to be 130000 M⁻¹ s⁻¹.

Values taken from patent publication US20240002542A1 (SYNTHEKINE, published 2024).
